Reference: PMC3036719, “The Multifunctional LigB Adhesin Binds Homeostatic Proteins with Potential Roles in Cutaneous Infection by Pathogenic Leptospira interrogans” (PLoS ONE, 2011)

Target: T1, LigB9-11 (Leptospira interrogans serovar …)
T1 construct: pET-20b(+) adds an initiating methionine and a C-terminal LEH6 tail; not shown: His6 (LEH6 tail), C-terminal, kept
Assay: ELISA; host protein (1 µg per well) immobilised in microtiter wells, blocked with 20 mg/mL BSA; recombinant LigB in 20 mg/mL BSA in PBS pH 7.2, 1 h at 37°C; bound LigB detected by its polyhistidine tag; apparent Kd from the LigB concentration at half-maximal binding
Conditions: both partners purified

B1: fibrinogen fragment D (complex)
chain 1: VSEDLRSRIEVLKRKVIEKVQHIQLLQKNVRAQLVDMKRLEVDIDIKIRSCRGSCSRALAREVDLKDYEDQQKQLEQVIAKDLLPSR
chain 2: DNENVVNEYSSELEKHQLYIDETVNSNIPTNLRVLRSILENLRSKIQKLESDVSAQMEYCRTPCTVSCNIPVVSGKECEEIIRKGGETSEMYLIQPDSSVKPYRVYCDMNTENGGWTVIQNRQDGSVDFGRKWDPYKQGFGNVATNTDGKNYCGLPGEYWLGNDKISQLTRMGPTELLIEMEDWKGDKVKAHYGGFTVQNEANKYQISVNKYRGTAGNALMDGASQLMGENRTMTIHNGMFFSTYDRDNDGWLTSDPRKQCSKEDGGGWWYNRCHAANPNGRYYWGGQYTWDMAKHGTDDGVVWMNWKGSWYSMRKMSMKIRPFFPQQ
chain 3: KMLEEIMKYEASILTHDSSIRYLQEIYNSNNQKIVNLKEKVAQLEAQCQEPCKDTVQIHDITGKDCQDIANKGAKQSGLYFIKPLKANQQFLVYCEIDGSGNGWTVFQKRLDGSVDFKKNWIQYKEGFGHLSPTGTTEFWLGNEKIHLISTQSAIPYALRVELEDWNGRTSTADYAMFKVGPEADKYRLTYAYFAGGDAGDAFDGFDFGDDPSDKFFTSHNGMQFSTWDNDNDKFEGNCAEQDGSGWWMNKCHAGHLNGVYYQGGTYSKASTPNGYDNGIIWATWKTRWYSMKKTTMKIIPFNRLTIGEGQQHHLGGAK
With B1 the Kd was 26 nM.
